To fix the notation:
B1: SEQ ID NO 32 (peptide)
peptide: CRIVPAC
modifications: disulfide 1-7; not fully specified (C-terminus)
B2: SEQ ID NO 2 (peptide)
peptide: Ac-KSRIVP-NH2
B3: SEQ ID NO 62 (peptide)
peptide: [code r][code r]VP-NH2
modifications: not fully specified

Bridges are numbered along the chain shown (N, C = ends). Where no end group is shown, it is not given here. [ ]: non-standard residue; d: D form.

Chain of dipeptidyl peptidase IV (DPPIV) in plasma of ICR mouse blood (P28843 37-760 limits assumed): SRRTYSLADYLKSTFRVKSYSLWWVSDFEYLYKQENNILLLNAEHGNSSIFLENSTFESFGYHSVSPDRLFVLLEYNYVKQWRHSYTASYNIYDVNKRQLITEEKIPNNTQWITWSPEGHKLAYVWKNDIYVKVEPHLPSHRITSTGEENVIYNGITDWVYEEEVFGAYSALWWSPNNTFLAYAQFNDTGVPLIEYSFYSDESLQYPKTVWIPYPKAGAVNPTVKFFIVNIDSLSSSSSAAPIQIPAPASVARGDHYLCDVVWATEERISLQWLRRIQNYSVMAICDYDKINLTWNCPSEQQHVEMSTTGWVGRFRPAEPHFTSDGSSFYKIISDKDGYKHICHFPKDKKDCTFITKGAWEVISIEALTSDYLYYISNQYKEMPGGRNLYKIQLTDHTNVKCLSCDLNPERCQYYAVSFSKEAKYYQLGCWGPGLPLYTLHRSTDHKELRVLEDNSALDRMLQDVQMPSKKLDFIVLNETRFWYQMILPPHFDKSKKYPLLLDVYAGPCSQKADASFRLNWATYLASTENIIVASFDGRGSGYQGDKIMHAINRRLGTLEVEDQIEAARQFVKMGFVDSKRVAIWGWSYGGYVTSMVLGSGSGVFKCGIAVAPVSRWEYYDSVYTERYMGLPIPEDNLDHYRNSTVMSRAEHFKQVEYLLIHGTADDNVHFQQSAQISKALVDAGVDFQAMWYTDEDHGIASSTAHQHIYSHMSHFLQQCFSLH

This test has as its target dipeptidyl peptidase IV (DPPIV) in plasma of ICR mouse blood (mouse, UniProt P28843 37-760). Kind of test: cell-based or functional assay.
For B1, the “% DPPIV Activity (Saline)” value was 30 % relative to saline control. On to B2, for which the “% DPPIV Activity (Saline)” value is 93 % relative to saline control. The value for B3 was 51 % relative to saline control.
